From US20200199533A1 (KING ABDULLAH UNIVERSITY OF SCIENCE AND TECHNOLOGY, published 2020)

Tests used:
[1] = target: T1, CD43, native glycoprotein from KG1a cells (human, UniProt P16150 20-400, native glycosylation); test: SPR; CD43 captured from KG1a lysate on polyclonal CD43 Ab, E-Ig injected, 150 mM NaCl; apparent rate constant; mean ± SEM
T1 construct: mature
T1 sequence (looked up): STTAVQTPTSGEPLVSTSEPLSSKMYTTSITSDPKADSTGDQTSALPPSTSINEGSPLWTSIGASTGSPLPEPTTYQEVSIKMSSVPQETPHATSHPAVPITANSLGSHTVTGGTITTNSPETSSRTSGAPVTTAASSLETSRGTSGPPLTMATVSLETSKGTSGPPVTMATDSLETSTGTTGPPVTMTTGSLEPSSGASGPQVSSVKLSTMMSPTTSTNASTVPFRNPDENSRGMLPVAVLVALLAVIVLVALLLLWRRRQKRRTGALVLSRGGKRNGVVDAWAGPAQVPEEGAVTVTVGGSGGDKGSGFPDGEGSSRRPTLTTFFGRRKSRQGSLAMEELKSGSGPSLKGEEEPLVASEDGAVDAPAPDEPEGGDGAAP

[2] = target: T2, PSGL-1, native glycoprotein from human HSPCs (KG1a, CD34^pos-BM) (human, UniProt Q14242 42-412, native glycosylation and tyrosine sulfation); test: SPR; PSGL-1 captured from KG1a lysate on KPL-1-mAb, E-Ig injected (3.9-2000 nM), 150 mM NaCl; steady-state model; 1st experiment
T2 construct: mature; also called P-selectin glycoprotein ligand-1
T2 sequence (looked up): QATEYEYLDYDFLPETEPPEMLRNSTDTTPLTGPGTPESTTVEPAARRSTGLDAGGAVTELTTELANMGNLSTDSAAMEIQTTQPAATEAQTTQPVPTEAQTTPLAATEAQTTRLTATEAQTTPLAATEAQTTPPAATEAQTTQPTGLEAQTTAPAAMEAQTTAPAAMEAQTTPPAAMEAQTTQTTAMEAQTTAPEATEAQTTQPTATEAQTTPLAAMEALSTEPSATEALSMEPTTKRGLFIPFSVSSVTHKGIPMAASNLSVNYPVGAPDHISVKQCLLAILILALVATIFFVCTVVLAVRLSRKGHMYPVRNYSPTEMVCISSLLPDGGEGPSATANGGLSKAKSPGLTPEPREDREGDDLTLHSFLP

[3] = target: T1, CD43, native glycoprotein from KG1a …; test: SPR; CD43 captured from KG1a lysate on polyclonal CD43 Ab, E-Ig injected, 150 mM NaCl; apparent rate constant; 1st experiment
[4] = target: T2, PSGL-1, native glycoprotein from human …; test: SPR; PSGL-1 captured from KG1a lysate on KPL-1-mAb, E-Ig injected (3.9-2000 nM), 150 mM NaCl; steady-state model; 2nd experiment
[5] = target: CD44 (HCELL), native glycoprotein from human HSPCs (KG1a, CD34^pos fraction) (human) (UniProt P16070); test: SPR; CD44 captured from KG1a lysate on Hermes-3-mAb, E-Ig injected, 150 mM NaCl; apparent rate constant; mean ± SEM
[6] = target: T3, CD34, native glycoprotein from human HSPCs (KG1a, CD34^pos-BM, CD34^pos-UCB, CD34^pos-AML) (human, UniProt P28906 32-385, native glycosylation (about 120-130 kDa form); sialylated O-glycans and tyrosine sulfation are shown to matter for selectin binding); test: SPR; CD34 captured from KG1a lysate on 563-mAb, E-Ig injected, 150 mM NaCl; apparent rate constant; 3rd experiment
T3 construct: mature; also called E-selL CD34
T3 sequence (looked up): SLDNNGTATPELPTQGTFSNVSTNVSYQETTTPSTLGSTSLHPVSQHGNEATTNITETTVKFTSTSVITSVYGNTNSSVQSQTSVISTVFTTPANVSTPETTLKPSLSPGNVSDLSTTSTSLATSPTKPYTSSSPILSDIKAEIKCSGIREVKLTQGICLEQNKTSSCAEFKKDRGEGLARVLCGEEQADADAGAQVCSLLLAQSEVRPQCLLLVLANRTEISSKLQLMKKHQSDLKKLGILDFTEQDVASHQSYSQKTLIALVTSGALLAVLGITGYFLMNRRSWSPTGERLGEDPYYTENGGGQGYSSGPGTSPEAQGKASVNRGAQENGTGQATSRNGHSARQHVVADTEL

[7] = target: CD44 (HCELL), native glycoprotein from human HSPCs (KG1a, CD34^pos fraction) (human) (UniProt P16070); test: SPR; CD44 captured from KG1a lysate on Hermes-3-mAb, E-Ig injected (3.9-2000 nM), 150 mM NaCl; steady-state model; 2nd experiment
[8] = target: T2, PSGL-1, native glycoprotein from human …; test: SPR; PSGL-1 captured from KG1a lysate on KPL-1-mAb, E-Ig injected, 150 mM NaCl; apparent rate constant; 3rd experiment
[9] = target: T1, CD43, native glycoprotein from KG1a …; test: SPR; CD43 captured from KG1a lysate on polyclonal CD43 Ab, E-Ig injected, 150 mM NaCl; apparent rate constant; 2nd experiment
[10] = target: T3, CD34, native glycoprotein from human …; test: SPR; CD34 captured from KG1a lysate on 563-mAb, E-Ig injected (3.9-2000 nM), 150 mM NaCl; steady-state model; mean ± SEM
[11] = target: T3, CD34, native glycoprotein from human …; test: SPR; CD34 captured from KG1a lysate on 563-mAb, E-Ig injected, 150 mM NaCl; apparent rate constant; mean ± SEM

Sequence of CD44 (HCELL), native glycoprotein from human HSPCs (KG1a, CD34^pos fraction) (human) (P16070 21-742): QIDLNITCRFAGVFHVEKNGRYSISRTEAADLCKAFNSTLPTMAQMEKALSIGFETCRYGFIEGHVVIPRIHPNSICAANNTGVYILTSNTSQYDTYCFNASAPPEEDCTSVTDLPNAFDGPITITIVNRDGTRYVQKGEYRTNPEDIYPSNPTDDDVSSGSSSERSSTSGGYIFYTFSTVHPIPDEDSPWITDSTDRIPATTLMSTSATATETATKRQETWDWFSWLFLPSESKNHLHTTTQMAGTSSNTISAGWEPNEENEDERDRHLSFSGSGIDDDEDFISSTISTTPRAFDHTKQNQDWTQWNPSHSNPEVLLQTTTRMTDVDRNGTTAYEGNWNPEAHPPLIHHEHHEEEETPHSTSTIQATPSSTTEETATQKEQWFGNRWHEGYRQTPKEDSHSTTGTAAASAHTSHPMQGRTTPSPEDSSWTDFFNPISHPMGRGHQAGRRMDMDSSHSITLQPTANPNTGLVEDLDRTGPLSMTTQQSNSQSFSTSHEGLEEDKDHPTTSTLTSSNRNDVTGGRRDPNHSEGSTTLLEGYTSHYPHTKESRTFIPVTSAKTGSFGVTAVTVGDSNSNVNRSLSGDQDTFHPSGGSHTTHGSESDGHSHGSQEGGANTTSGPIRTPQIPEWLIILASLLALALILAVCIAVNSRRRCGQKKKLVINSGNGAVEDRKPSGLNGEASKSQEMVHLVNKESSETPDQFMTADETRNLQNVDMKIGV

B1: recombinant E-selectin human immunoglobulin chimeric protein (Fc fusion)
chain: WSYNTSTEAMTYDEASAYCQQRYTHLVAIQNKEEIEYLNSILSYSPSYYWIGIRKVNNVWVWVGTQKPLTEEAKNWAPGEPNNRQKDEDCVEIYIKREKDVGMWNDERCSKKKLALCYTAACTNTSCSGHGECVETINNYTCKCDPGFSGLKCEQIVNCTALESPEHGSLVCSHPLGNFSYNSSCSISCDRGYLPSSMETMQCMSSGEWSAPIPACNVVECDAVTNPANGFVECFQNPGSFPWNTTCTFDCEEGFELMGAQSLQCTSSGNWDNEKPTCKAVTCRAVRQPQNGSVRCSHSPAGEFTFKSSCNFTCEEGFMLQGPAQVECTTQGQWTQQIPVCEAFQCTALSNPERGYMNCLPSASGSFRYGSSCEFSCEQGFVLKGSKRLQCGPTGEWDNEKPTCEAVRCDAVHQPPKGLVRCAHSPIGEFTYKSSCAFSCEEGFELHGSTQLECTSQGQWTEEVPSCQVVKCSSLAVPGKINMSCSGEPVFGTVCKFACPEGWTLNGSAARTCGATGHWSGLLPTCEAPTESNIP
Work on B1 yielded a koff [1] of 0.00045 s⁻¹, a Kd [2] of 342 nM and a koff [3] of 0.00048 s⁻¹. For the same binder, the kon [3] was 944 M⁻¹ s⁻¹, the Kd [4] was 207 nM and the koff [5] was 0.00019 s⁻¹. The kon [5] was 903 M⁻¹ s⁻¹, the koff [6] was 0.000331 s⁻¹ and the Kd [7] was 252 nM. For the same binder, the koff [8] was 0.000262 s⁻¹, the kon [8] was 1140 M⁻¹ s⁻¹ and the koff [9] was 0.00042 s⁻¹. The kon [9] was 1060 M⁻¹ s⁻¹, the Kd [10] was 237 nM and the koff [11] was 0.00026 s⁻¹. For the same binder, the kon [11] was 1230 M⁻¹ s⁻¹.
